For the assay, the target named is SecY(S329C)EG (E. coli) (UniProt P0AGA2).

MKKTAIAIAVALAGFATVAQC: the characteristic lifetime of the open channels at φ = −140 mV after cross-linking by KTT came to 14 s.

The record behind these values is publication PMC7023257.
